Results published in patent US8445635B2, “Modified H2 relaxin for tumor suppression” (Armour Therapeutics Inc., priority 2006, dated 2013).

Assays:
LGR7 = target: T1, LGR7 (Homo sapiens, UniProt Q9HBX9); assay: Flow cytometry-based relaxin binding assay on 293T-LGR7 cells, competed with bH2; details: unconcentrated CM, WT H2 1 and 4 ng/mL, ΔH2 1 ng/mL, competed with 5 ng bH2
T1 construct: expressed in transfected cells; host or cells: 293T-LGR7 (293T human embryonic kidney cells)
T1 sequence (Q9HBX9 1-757): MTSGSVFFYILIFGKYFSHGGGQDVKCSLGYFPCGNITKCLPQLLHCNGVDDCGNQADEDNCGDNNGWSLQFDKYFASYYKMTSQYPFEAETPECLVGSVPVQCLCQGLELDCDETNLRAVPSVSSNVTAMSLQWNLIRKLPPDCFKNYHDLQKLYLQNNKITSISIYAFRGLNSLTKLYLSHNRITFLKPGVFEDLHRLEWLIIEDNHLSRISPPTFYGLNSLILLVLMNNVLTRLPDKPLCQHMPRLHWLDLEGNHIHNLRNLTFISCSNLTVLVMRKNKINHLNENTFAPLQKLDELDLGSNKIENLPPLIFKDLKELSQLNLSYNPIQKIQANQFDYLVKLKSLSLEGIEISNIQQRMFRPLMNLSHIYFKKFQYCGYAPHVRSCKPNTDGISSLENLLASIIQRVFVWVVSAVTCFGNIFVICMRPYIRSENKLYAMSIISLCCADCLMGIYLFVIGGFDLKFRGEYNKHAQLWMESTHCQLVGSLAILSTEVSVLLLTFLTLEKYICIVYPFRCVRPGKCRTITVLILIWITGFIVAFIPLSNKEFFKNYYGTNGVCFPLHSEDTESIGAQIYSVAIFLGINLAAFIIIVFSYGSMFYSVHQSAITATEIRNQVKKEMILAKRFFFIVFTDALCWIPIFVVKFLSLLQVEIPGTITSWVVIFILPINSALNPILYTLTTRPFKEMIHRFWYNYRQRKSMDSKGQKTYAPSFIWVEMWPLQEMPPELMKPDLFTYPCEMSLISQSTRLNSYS
Experimental: To optimize collection of recombinant ΔH2 peptide for this assay, single-cell clones of LV-infected 293T cell cultures were isolated. Clones were confirmed by flow cytometry measuring eGFP fluorescence and selected based on highest expression. 293T-eGFP#3, 293TΔH2/eGFP#6, 293T-H2/eGFP#3 cell cultures were seeded in 15-cam plates in complete medium overnight, refreshed with Dulbecco's Modified Eagle Medium (DMEM) medium containing 2% FCS after 24 h, and incubated for an additional 48 h. At this point, CM were collected for assays. H2 relaxin levels in unconcentrated CM from 293T-eGFP#3, 293TΔH2/eGFP#6, 293T-H2/eGFP#3 cell cultures were approximated by the H2 ELISA to be 0, 1, and 4 ng/mL (data not shown).
293T-LGR7 cells were collected, washed with PBS supplemented with 1% FCS (PBS-1%), and resuspended at 1.67×10^7 cells/mL. For each sample, 30 μl (0.5×10^6 […]) were added per 5 mL polystyrene round-bottom Falcon tube (Becton Dickinson Labware, Franklin Lakes, N.J., USA). Control samples contained 50 μL of either PBS-1% containing 5 ng of rH2 or 50 μL of PBS-1% alone. […] Samples were incubated for 15 min at RT. […] Cells were washed twice with 500 μL of PBA-1% and analyzed on a FACSCalibur flow cytometer) BDBiosciences, Franklin Lakes, N. J., USA).

[1] = target: T2, relaxin receptors on THP-1 cells (Homo sapiens, UniProt Q9HBX9); assay: THP-1 cAMP bioassay; details: THP-1 and PC3-Luc cell cultures
T2 sequence (Q9HBX9 1-757): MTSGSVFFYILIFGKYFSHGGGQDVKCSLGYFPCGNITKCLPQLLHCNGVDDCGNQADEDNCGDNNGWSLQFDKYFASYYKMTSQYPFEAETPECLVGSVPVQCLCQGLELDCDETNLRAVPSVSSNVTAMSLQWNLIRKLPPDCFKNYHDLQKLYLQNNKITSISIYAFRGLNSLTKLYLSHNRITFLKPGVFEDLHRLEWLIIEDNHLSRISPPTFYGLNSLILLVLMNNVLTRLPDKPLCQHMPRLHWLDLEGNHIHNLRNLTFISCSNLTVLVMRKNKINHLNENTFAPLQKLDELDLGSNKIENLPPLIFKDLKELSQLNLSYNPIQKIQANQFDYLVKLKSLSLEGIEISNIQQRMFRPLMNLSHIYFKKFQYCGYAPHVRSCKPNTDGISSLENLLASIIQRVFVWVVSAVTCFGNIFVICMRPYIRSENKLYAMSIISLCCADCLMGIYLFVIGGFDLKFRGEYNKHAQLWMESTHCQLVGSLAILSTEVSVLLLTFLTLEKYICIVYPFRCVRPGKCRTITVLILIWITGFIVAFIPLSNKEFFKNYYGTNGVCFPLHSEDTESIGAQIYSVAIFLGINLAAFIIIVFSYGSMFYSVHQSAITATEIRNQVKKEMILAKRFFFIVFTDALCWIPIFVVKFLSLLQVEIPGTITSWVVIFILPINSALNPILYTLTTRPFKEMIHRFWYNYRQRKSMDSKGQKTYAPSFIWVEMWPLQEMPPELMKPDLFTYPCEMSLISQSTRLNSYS
Text: To confirm the biological activity of the H2 and ΔH2 relaxins, the cAMP Biotrak E1A System was employed (Amersham Biosciences) as described before (Parsell, D. A., Mak, J. Y., Amento, E P., Unemori, E. N. 1996. Relaxin binds to and elicits a response from cells of the human monocytic cell line, THP-1. J Biol Chem. 271:27936-41; Silvertown, J. D., Geddes, B. J., Summerlee, A. J. 2003. Adenovirus mediated expression of human prorelaxin promotes the invasive potential of canine mammary cancer cells. Endocrinology. 144:3683-91). For measuring bioactivity from CM, 40 μL from each concentrated CM sample was added to THP-1 cells. For measuring cAMP levels directly from the LV-infected PC3-Luc cells, 1×10^5 cells were seeded in a 96-well plate and equilibrated for 2 h before cAMP was measured as described (Parsell, D. A., Mak, J. Y., Amento, E P., Unemori, E. N. 1996. Relaxin binds to and elicits a response from cells of the human monocytic cell line, THP-1. J Biol Chem. 271:27936-41; Silvertown, J. D., Geddes, B. J., Summerlee, A. J. 2003. Adenovirus-mediated expression of human prorelaxin promotes the invasive potential of canine mammary cancer cells. Endocrinology. 144:3683-91). The THP-1 cAMP assay was also adapted for an H2 relaxin competitive assay. […]

relaxin receptor = details: Bullesbach 1992; cited from earlier work
[2] = Plasma osmolality of PC3-Luc tumor-bearing mice at week 11; format: in vivo, mouse; details: week 11, P=0.04
Experimental: To determine whether H2 and ΔH2 relaxins secreted from the PC3-Luc tumor xenografts elicited a systemic physiological response, plasma osmolality was measured from the animals at the termination of the study (FIG. 4D). Plasma osmolality readings obtained from PC3-H2/eGFP, PC3-Luc-eGFP and PC3-Luc-ΔH2/eGFP animals averaged 330±4.6 […] and 342±4.6 mmol/L, respectively. […] Overexpression of ΔH2 relaxin in the tumor microenvironment may inhibit endogenous H2 relaxin progrowth signals to tumor cells or tumor-infiltrated ECs.
Six-to-eight week old male NOD/SCID mice (The Jackson Laboratory; Bar Harbour, Me.) wore maintained at the Animal Resource Facility (PMH, Toronto, Canada) under an approved UHN protocol. […] Tumors were measured weekly by calipers and tumor volume approximated (l×w×d), as described previously (Silvertown, J. D., Ng, J., Sato, T., Summerlee, A. J., Medin, J. A. 2006. H2 relaxl; overexpression increases in vivo prostate xenograft tumor growth and angiogenesis. Iift J Cancer. 118:62-73). […] For plasma osmolality readings, approximately 100-200 μL of blood was collected in heparin (heparin sodium, 1000 USP units/mL; Hepalean) and sent for analysis (Animal Health Laboratory, Department of Pathobiology, University of Guelph).

B1: ΔH2: H2 relaxin with lysine substitution at B13 and B17 of the receptor binding domain, B20 Ile (protein, UniProt P04090 1-185, looked up, variant R13K R17K)
chain: MPRLFFFHLLGVCLLLNQFSRAVADSWMEEVIKLCGKELVKAQIAICGMSTWSKRSLSQEDAPQTPRPVAEIVPSFINKDTETINMMSEFVANLPQELKLTLSEMQPALPQLQQHVPVLKDSSLLFEEFKKLIRNRQSEAADSSPSELKYLGLDTHSRKKRQLYSALANKCCHVGCTKRSLARFC
modifications: B-chain numbering
receptor affinity (LGR7): low | Bioactivity by cAMP assays [1]: significantly impaired | biological activity (relaxin receptor): biologically inactive | lower affinity for receptor binding than wild type H2 relaxin (relaxin receptor): ~2200 fold | plasma osmolality increase compared to wild-type H2-expressing tumor animals [2]: approximately 12 mmol/L
